These results are taken from patent publication US20250304693A1.

For experiment [1], the target named is human BTLA (B- and T-lymphocyte attenuator) on cells (human) (UniProt Q7Z6A9). Nature of the experiment: FACS, primary human B cells, donor 1709, AF647 anti-human IgG Fc secondary antibody. (In general: Flow cytometry measures light scatter and fluorescence of single cells or particles in a stream.)
Experiment [2] concerns the target cynomolgus BTLA on cells (cynomolgus). As to the kind of experiment: FACS on Expi293.cynoBTLA cells, AF647 anti-human IgG Fc detection.
Experiment [3] concerns the target recombinant human BTLA (human) (UniProt Q7Z6A9). As to the kind of experiment: ELISA on recombinant human BTLA. Background: An ELISA detects its analyte on a solid surface through an enzyme-linked reagent.
The target in experiment [4] is human BTLA (B- and T-lymphocyte attenuator) on cells (human) (UniProt Q7Z6A9). Nature of the experiment: FACS, primary human T cells, donor 1709, AF647 anti-human IgG Fc secondary antibody.
The target is the same in experiment [5]. Nature of the experiment: FACS, primary human B cells, donor 149, AF647 anti-human IgG Fc secondary antibody.
For experiment [6] the target is unchanged. Nature of the experiment: FACS competition on HEK293T.hBTLA cells; competitor hrHVEM-His-DL650.
For experiment [7] the target is unchanged. As to the kind of experiment: FACS on HEK293 cells overexpressing human BTLA, AF647 anti-human IgG Fc detection.
The target is the same in experiment [8]. As to the kind of experiment: FACS on HEK293T.hBTLA cells, AF647 anti-human IgG Fc detection.
Experiment [9] addresses cynomolgus BTLA on cells (cynomolgus). Nature of the experiment: FACS on Expi293 cells overexpressing cynomolgus BTLA, AF647 anti-human IgG Fc detection.
Experiment [10] deals with human BTLA (B- and T-lymphocyte attenuator) on cells (human) (UniProt Q7Z6A9). Nature of the experiment: FACS competition on HEK293.BTLA cells; competitor DL650-conjugated soluble HVEM.
For experiment [11] the target is unchanged. As to the kind of experiment: cell-based or functional assay.
For experiment [12] the target is unchanged. Nature of the experiment: FACS, primary human T cells, donor 149, AF647 anti-human IgG Fc secondary antibody.

human BTLA (B- and T-lymphocyte attenuator) on cells (human), sequence (Q7Z6A9 31-289): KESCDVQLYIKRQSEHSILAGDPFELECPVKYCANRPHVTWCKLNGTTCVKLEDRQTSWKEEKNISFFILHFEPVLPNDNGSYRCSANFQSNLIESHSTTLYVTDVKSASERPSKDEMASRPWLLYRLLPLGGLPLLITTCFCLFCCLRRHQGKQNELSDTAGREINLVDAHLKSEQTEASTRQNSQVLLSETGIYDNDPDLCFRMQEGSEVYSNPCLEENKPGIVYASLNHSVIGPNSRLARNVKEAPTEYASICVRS
cynomolgus BTLA on cells (cynomolgus), sequence (chain, as listed by the source): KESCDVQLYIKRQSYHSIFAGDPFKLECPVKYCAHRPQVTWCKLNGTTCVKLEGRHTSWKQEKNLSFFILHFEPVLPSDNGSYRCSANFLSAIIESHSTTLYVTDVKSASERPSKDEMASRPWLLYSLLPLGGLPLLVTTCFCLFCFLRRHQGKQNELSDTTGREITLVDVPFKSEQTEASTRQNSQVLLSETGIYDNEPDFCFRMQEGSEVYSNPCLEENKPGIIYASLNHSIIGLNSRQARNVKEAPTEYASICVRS
recombinant human BTLA (human), sequence (Q7Z6A9 31-157 limits assumed): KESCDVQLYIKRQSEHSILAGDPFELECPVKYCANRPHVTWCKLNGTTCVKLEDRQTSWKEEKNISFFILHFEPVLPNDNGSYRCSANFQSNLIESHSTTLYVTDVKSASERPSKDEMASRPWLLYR

B1: JS004 (antibody, INN chains, looked up, V domains shown)
VH: QVQLVQSGAEVKKPGASVKLSCKASGYNFKHTYAHWVRQAPGQGLEWIGRIDPANGNTKYDPKFQGRATMTADTASNTAYLELSSLRSEDTAVYYCVADHYGSSLLDYWGQGTLVTVSS
VL: DVVMTQTPLSLSVTPGQPASISCKSSQSLLDSDGKTYLNWFQQRPGQSPRRLIYLVSKLDSGVPDRFSGSGSGTDFTLKISRVEAEDVGVYYCWQGTYFPYTFGQGTKLEIK
What is called EC50 is the concentration needed to bring the measured effect to its halfway point. Usually IC50 stands for the midpoint of a concentration-inhibition curve. With B1, the EC50 in experiment [1] is 0.19 nM; in experiment [2], 5.25 nM; in experiment [3], 2.43 nM; in experiment [4], 1.1 nM; in experiment [5], 0.19 nM; in experiment [7], 0.804 nM. The concentration for a half-maximal effect (EC50) amounted to 5.97 nM in [8], 0.561 nM in experiment [9] and 1.3 nM in experiment [12]. Further, the Emax(%) in experiment [1] was 82%; in experiment [4] it was 56%; in experiment [5], 73%; in [12], 97%. For the same molecule, the IC50 in [6] came out at 1.47 nM; in experiment [10], 4.32 nM. In [11], this molecule showed a BTLA-HVEM blockade reporter assay, EC50 of 10.4 nM. The molecule further displayed a Reporter EC50 in experiment [11] of 13.1 nM.
